Like-named read-outs stand apart in the source and are kept apart here.
Key:
Ddn = Ddn (Mycobacterium tuberculosis, UniProt P9WP15); assay: F420H2 oxidation, absorbance at […] nm
[1] = system: CC1=C(C)C(=O)c2ccccc2C1=O; assay: purified protein; details: pH 8.0
CC1=CC(=O)c2ccccc2C1=O = assay: purified protein
[2] = system: COC1=C(OC)C(=O)C(C)=CC1=O; assay: purified protein; details: pH 8.0
[3] = system: COC1=C(OC)C(=O)C(C/C=C(\C)CCC=C(C)C)=C(C)C1=O; assay: purified protein; details: pH 8.0
[4] = system: COC1=C(OC)C(=O)C(CC=C(C)C)=C(C)C1=O; assay: purified protein; details: pH 8.0
[5] = co-substrate 100 μM F420H2, 200 mM Tris-HCl pH 8.0, 0.01% Triton X-100

Chain of Ddn (P9WP15 whole entry): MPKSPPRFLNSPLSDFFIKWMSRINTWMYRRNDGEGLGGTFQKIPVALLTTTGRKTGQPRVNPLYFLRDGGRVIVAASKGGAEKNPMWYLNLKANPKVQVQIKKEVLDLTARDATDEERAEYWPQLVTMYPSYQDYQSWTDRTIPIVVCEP

O=C1C=CC(=O)c2ccccc21 [1,4-naphthoquinone]
Km (Ddn; [5]): 2.23 ± 1.19 µM

O=[N+]([O-])c1cn2c(n1)OC[C@@H](OCc1ccc(OC(F)(F)F)cc1)C2 [PA-824]
Km (Ddn): 28.6 ± 3.55 µM

CC1=CC(=O)c2c(O)cccc2C1=O [Plumbagin]
Km (Ddn; [5]): 2.17 ± 2.74 µM

(Mycobacterium tuberculosis H37Rv)
Km [1]: 2.21 ± 0.98 µM | kcat/Km [1]: 40500 M⁻¹ s⁻¹ | Km (CC1=CC(=O)c2ccccc2C1=O): 2.09 ± 0.91 µM | kcat/Km (CC1=CC(=O)c2ccccc2C1=O): 255000 M⁻¹ s⁻¹ | Km (CC1=CC(=O)c2ccccc2C1=O; pH 8.0): 3.44 ± 1.27 µM | kcat/Km (CC1=CC(=O)c2ccccc2C1=O; pH 8.0): 86000 M⁻¹ s⁻¹ | Km [2]: 12.35 ± 2.65 µM | kcat/Km [2]: 1670 M⁻¹ s⁻¹ | Km [3]: 3.14 ± 0.97 µM | kcat/Km [3]: 28800 M⁻¹ s⁻¹ | Km [4]: 10.12 ± 2.23 µM | kcat/Km [4]: 3500 M⁻¹ s⁻¹
